Entries after “also recorded” stand apart in the source; their conditions may differ.
What was measured:
[1] = assay type: physicochemical; conditions: pH 7.4
Experimental: The experimental determination of probe partition coefficients (log P values) was performed in 1-octanol and 0.02 M phosphate buffer pH 7.4 where the two phases were pre-saturated with each other. 1-Octanol (200 µl) and phosphate buffer (200 µl) were pipetted into LoBind Eppendorf tubes containing 0.37 MBq of probes. The tube was vortexed for 10 seconds, and centrifuged (5 min, 4000×g). Aliquots (50 µl) from the 1-octanol and buffer phases were transferred into two test tubes for radioactivity counting with a NaI well-type scintillation counter (1470 WIZARD, Perkin Elmer, Kanagawa, Japan). The partition coefficient was calculated using the equation P = (counts/µl in 1-octanol)/(counts/µl in buffer).

[2] = test system: HT1080 human fibrosarcoma cells; experiment: Cellular uptake study; assay type: cell-based; conditions: 5×10^5 HT1080 cells, FBS-free DMEM, 37 kBq probe, 30 min incubation, radioactivity counting, Fig. 3a
Experimental: HT1080 human fibrosarcoma cells were purchased from American Type Culture Collection (ATCC, Manassas, VA USA) and cultured in DMEM with low glucose (Invitrogen), 10% fetal bovine serum (FBS), and penicillin/streptomycin. MMP-2 cDNA was cloned into the pENTR vector (Invitrogen) and inserted into the pLenti6 vector (Invitrogen) as previously described, [7]. […] Protein quantitation was performed by BCA protein assay (Thermo Fisher Scientific, Inc. Rockford, IL USA). The cellular uptake study of MDAP3000 pretreated with activated MMP-2 (63 nM) in the presence or absence of GM6001 (100 µM) was performed as described above.

[3] = target: T1, Human-recombinant MMP-2 protein (Homo sapiens, UniProt P08253); experiment: Cleavage assay; assay type: biochemical; conditions: activated MMP-2 1–5 nM, 370 kBq probe, 37°C, 2 hr, pH 7.5 assay buffer, RP-HPLC, Fig. 3b
T1 construct: purchased R & D Systems, Inc. 902-MP-010
T1 sequence (P08253 110-660): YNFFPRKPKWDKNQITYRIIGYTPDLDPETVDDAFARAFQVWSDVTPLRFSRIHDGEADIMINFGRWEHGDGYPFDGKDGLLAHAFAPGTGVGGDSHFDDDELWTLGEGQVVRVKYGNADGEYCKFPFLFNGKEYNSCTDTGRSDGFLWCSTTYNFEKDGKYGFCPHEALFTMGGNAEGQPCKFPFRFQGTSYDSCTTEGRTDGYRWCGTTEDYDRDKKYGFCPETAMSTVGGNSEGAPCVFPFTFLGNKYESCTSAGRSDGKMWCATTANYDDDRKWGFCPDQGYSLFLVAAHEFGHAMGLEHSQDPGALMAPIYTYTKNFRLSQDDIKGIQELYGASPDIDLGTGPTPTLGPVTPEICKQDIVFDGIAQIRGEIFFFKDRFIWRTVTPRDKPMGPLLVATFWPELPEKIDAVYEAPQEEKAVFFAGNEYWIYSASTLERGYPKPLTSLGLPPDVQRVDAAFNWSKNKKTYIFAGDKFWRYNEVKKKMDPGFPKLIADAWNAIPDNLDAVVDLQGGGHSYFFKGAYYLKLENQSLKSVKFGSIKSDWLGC
Experimental: Human-recombinant MMP-2 protein (902-MP-010, R & D Systems, Inc., Minneapolis, MN USA) was activated with p-aminophenylmercuric acetate (1 mM) in assay buffer (50 mM Tris-HCl, 150 mM NaCl, 10 mM CaCl2, 5 µM ZnCl2, 0.02% Brij 35, pH 7.5). MDAP1000, MDAP3000, and MDAP5000 (370 kBq) were incubated at 37°C for 2 hr with activated MMP-2 (1–5 nM) and a MMP inhibitor (0 or 100 µM, GM6001, Merck KGaA, Darmstadt, Germany). The reaction was quenched by addition of methanol, and the percentage of cleaved peptide was estimated by RP-HPLC.

[4] = test system: HT1080 tumor bearing mice; set-up: species or system mouse (Balb/c nu-nu); conditions: mouse, in vivo, iv
Experimental: Female Balb/c nu-nu mice (5 weeks old, Japan SLC, Inc., Shizuoka, Japan) were housed under a 12-h light/12-h dark cycle and given free access to food and water. HT1080 cells (5×10^6 cells/100 μl PBS (-)/mouse) were subcutaneously inoculated into the right hind leg of Balb/c nu-nu mice. Animals were used for experiments two weeks after inoculation when the mean tumor size was 5.7±2.2 mm along the major axis. […]3000 and […] (37 kBq, 100 μl in PBS including 3% bovine serum albumin and 0.1% Tween 80) were injected intravenously into the tail vein of tumor bearing mice. The mice were sacrificed at various post-injection time points (n = 3 for each time point), and the organs of interest including the tumor tissues were collected for determination of the weights. The radioactivity of each sample was measured with a NaI well-type scintillation counter. From fitting to the two phase decay curves for blood radioactivity data analyzed by GraphPad Prism 6 (GraphPad Software, San Diego, CA), whole body pharmacokinetic parameters such as blood half-lives, distribution volume, mean residence time and total clearance were calculated for each of the probes and the values compared. Simple pharmacokinetic analysis using a single tissue compartment model was applied to the biodistribution data to calculate rate constants (K1 and k2) for radioactivity transfer from blood to tumor and clearance from tumor to blood by PMOD version 3.2. In addition, MDAP3000 (7.4 MBq in 200 μl) was injected intravenously into the tail vein of tumor bearing mice for metabolite analysis in tumors excised 3, 6, and 24 hr post injection (n = 2 each). Tumor homogenates were prepared on ice and insoluble material was removed by centrifugation after methanol treatment. The resulting supernatant was analyzed by RP-HPLC.

[5] = test system: HT1080 tumor bearing mice; set-up: species or system mouse (Balb/c nu-nu); conditions: mouse, in vivo, iv; remark: listed apart in the source
Experimental: (§1) […]3000 and […] (37 kBq, 100 μl in PBS including 3% bovine serum albumin and 0.1% Tween 80) were injected intravenously into the tail vein of tumor bearing mice. The mice were sacrificed at various post-injection time points (n = 3 for each time point), and the organs of interest including the tumor tissues were collected for determination of the weights. The radioactivity of each sample was measured with a NaI well-type scintillation counter. From fitting to the two phase decay curves for blood radioactivity data analyzed by GraphPad Prism 6 (GraphPad Software, San Diego, CA), whole body pharmacokinetic parameters such as blood half-lives, distribution volume, mean residence time and total clearance were calculated for each of the probes and the values compared. Simple pharmacokinetic analysis using a single tissue compartment model was applied to the biodistribution data to calculate rate constants (K1 and k2) for radioactivity transfer from blood to tumor and clearance from tumor to blood by PMOD version 3.2. In addition, MDAP3000 (7.4 MBq in 200 μl) was injected intravenously into the tail vein of tumor bearing mice for metabolite analysis in tumors excised 3, 6, and 24 hr post injection (n = 2 each). Tumor homogenates were prepared on ice and insoluble material was removed by centrifugation after methanol treatment. The resulting supernatant was analyzed by RP-HPLC.

[6] = test system: HT1080 tumor xenograft; set-up: species or system mouse (Balb/c nu-nu); conditions: mouse, in vivo, iv
Experimental: as §1

Substance	log P (partition coefficient) [1]	Cellular accumulation (radioactivity in tumor cells) [2]	Cleavage by MMP-2 [3]	Blood clearance (in words) [4]	T/B ratios over the experimental period [4]	Blood half-life, Fast [5] [h]	Clearance (total clearance) [5] [mL/min]	Distribution volume [5] [mL]	Mean residence time [5] [min]	K1, rate constant for transfer from blood to tumor, Mean [6] [mL/g/min]
Palmitoyl-Dap(p-SCN-Bn-DTPA-^111In)-10-Adc-Gly-Pro-Leu-Gly-Val-Arg-Gly-Lys(ivDde)-PEG5000 [MDAP5000]	−1.04±0.16	significantly lower radioactivity	concentration-dependent manner; also recorded: rather low							
Palmitoyl-Dap(p-SCN-Bn-DTPA-^111In)-10-Adc-Gly-Pro-Leu-Gly-OH [MDAPCV]	0.29±0.07	high accumulation group		slow blood clearance	less than 0.3	4.17	0.0025	2.16	860	0.0022

— PMC4092090, “Investigation of a MMP-2 Activity-Dependent Anchoring Probe for Nuclear Imaging of Cancer” (PLoS ONE, 2014)
